Assay results as given in patent US20110262366A1.
Blank lines part the entries; values can stand above or below the binder they belong to. Starred links: 1 amine or outer side, 2 acyl side, 3 side chain; linkers in the order of their positions; H or OH if unused. Positions of bridges follow the written chain, without caps; N, C: chain ends. Primed or numbered codes have the meaning given here. No end group written: not given here. DPPE′ = dipalmitoylphosphatidylethanolamine; Glutaryl = O=C(CCCC(=O)[*:2])[*:1]

Assays:
[1] = target: endothelial cell receptor on HAEC (human aortic endothelial cells); test: conjugated fluorescent beads on confluent HAEC, static 30 min, image analysis (Example 2, experiment 1)
[2] = target: endothelial cell receptor on HAEC (human aortic endothelial cells); test: competition, 200 µM BRU-306 against 2% BRU-114 microbubbles (competitor) on HAEC, static
[3] = target: endothelial cell receptor on HAEC (human aortic endothelial cells); test: competition, 50 µM BRU-306 against 2% BRU-114 microbubbles (competitor) on HAEC, static
[4] = target: endothelial cell receptor on HAEC (human aortic endothelial cells); test: competition, 100 µM BRU-306 against 2% BRU-114 microbubbles (competitor) on HAEC, static
[5] = target: endothelial cell receptor on HAEC (human aortic endothelial cells); test: TKPPR-beads perfused over HAEC in a parallel plate flow cell, 1.53 dynes/cm^2
[6] = target: VEGF receptors on HUVECs; test: competition with ^125I-VEGF on HUVECs
[7] = target: endothelial cell receptor on HAEC (human aortic endothelial cells); test: competition, 10 µM tuftsin against 1% BRU-114 microbubbles (competitor) on HAEC, static
[8] = target: NP-1/Fc (Neuropilin-1/Fc, R&D Systems); test: competition with 250 pM ^125I-VEGF165 on NP-1/Fc-coated plates, 4° C., 2 h
NP-1/Fc (Neuropilin-1/Fc, R&D Systems), sequence (Q9QWJ9 22-855): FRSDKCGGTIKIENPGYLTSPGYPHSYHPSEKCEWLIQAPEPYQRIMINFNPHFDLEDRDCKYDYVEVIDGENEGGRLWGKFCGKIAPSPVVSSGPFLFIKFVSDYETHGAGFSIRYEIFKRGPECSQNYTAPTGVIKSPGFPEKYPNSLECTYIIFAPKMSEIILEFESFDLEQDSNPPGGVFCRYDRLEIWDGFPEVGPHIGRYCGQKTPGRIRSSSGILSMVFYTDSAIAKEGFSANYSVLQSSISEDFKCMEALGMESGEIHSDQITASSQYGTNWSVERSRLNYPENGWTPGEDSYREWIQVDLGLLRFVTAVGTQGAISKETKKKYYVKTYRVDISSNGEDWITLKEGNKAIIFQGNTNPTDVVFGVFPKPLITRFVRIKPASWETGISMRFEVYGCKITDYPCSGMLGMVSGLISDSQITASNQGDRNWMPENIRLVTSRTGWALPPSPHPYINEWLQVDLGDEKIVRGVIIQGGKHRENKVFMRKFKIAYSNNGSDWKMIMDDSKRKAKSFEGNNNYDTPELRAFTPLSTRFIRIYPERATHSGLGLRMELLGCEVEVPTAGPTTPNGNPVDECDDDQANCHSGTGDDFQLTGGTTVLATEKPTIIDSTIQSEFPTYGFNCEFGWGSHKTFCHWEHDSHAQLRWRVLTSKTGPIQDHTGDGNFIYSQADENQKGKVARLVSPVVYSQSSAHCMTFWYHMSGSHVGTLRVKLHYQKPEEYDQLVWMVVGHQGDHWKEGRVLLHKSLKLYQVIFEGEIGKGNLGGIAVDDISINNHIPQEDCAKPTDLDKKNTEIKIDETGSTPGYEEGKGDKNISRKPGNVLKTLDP

[9] = target: endothelial cell receptor on HAEC (human aortic endothelial cells); test: competition, 50 µM tuftsin against 1% BRU-114 microbubbles (competitor) on HAEC, static
[10] = target: endothelial cell receptor on HAEC (human aortic endothelial cells); test: competition, 100 µM tuftsin against 1% BRU-114 microbubbles (competitor) on HAEC, static
[11] = target: endothelial cell receptor on HAEC (human aortic endothelial cells); test: competition, 5 µM tuftsin against 1% BRU-114 microbubbles (competitor) on HAEC, static
[12] = target: endothelial cell receptor on HAEC (human aortic endothelial cells); test: competition, 25 µM tuftsin against 1% BRU-114 microbubbles (competitor) on HAEC, static
[13] = target: endothelial cell receptor on HAEC (human aortic endothelial cells); test: competition, 100 µM BRU-305 against 2% BRU-114 microbubbles (competitor) on HAEC, static
[14] = target: endothelial cell receptor on HAEC (human aortic endothelial cells); test: competition, 200 µM BRU-305 against 2% BRU-114 microbubbles (competitor) on HAEC, static
[15] = target: endothelial cell receptor on HAEC (human aortic endothelial cells); test: competition, 50 µM BRU-305 against 2% BRU-114 microbubbles (competitor) on HAEC, static
[16] = target: endothelial cell receptor on HAEC (human aortic endothelial cells); test: microbubbles with 5% DPPE-GTKPPR on HAEC, static, no competitor (same control as in the 16th table)
[17] = target: endothelial cell receptor on HAEC (human aortic endothelial cells); test: microbubbles with 1% BRU-114 on HAEC, static, no competitor, average of duplicates
[18] = target: endothelial cell receptor on HAEC (human aortic endothelial cells); test: microbubbles with 2% BRU-114 on HAEC, static, no competitor (control set to 100)
[19] = target: endothelial cell receptor on HAEC (human aortic endothelial cells); test: microbubbles with 5% DPPE-GTKPPR on HAEC, static; cells treated with 0 ng/mL TNFα for 4 h
[20] = target: endothelial cell receptor on HAEC (human aortic endothelial cells); test: microbubbles with 5% DPPE-GTKPPR on HAEC, static, after washing
[21] = target: endothelial cell receptor on HAEC (human aortic endothelial cells); test: microbubbles with 5% DPPE-GTKPPR on HAEC, static; cells treated with 10 ng/mL TNFα for 4 h
[22] = target: endothelial cell receptor on HAEC (human aortic endothelial cells); test: microbubbles with 5% DPPE-GTKPPR on HAEC, static; cells treated with 1 ng/mL TNFα for 4 h
[23] = target: endothelial cell receptor on RAEC (rabbit aortic endothelial cells); test: microbubbles with 5% DPPE-GTKPPR on RAEC, static, no competitor
[24] = target: endothelial cell receptor on HAEC (human aortic endothelial cells); test: microbubbles with 1% BRU-114 on HAEC, static, no competitor
[25] = target: endothelial cell receptor on HAEC (human aortic endothelial cells); test: microbubbles with 5% DPPE-GTKPPR on HAEC, static, no competition
[26] = target: endothelial cell receptor on HAEC (human aortic endothelial cells); test: microbubbles with 5% DPPE-GTKPPR on HAEC, static, no competitor
[27] = target: endothelial cell receptor on HAEC (human aortic endothelial cells); test: microbubbles with 2% BRU-114 on HAEC, static, no competitor, average of duplicates
[28] = target: endothelial cell receptor on HAEC (human aortic endothelial cells); test: microbubbles with 5% BRU-114 on HAEC, static, no competitor
[29] = target: endothelial cell receptor on HAEC (human aortic endothelial cells); test: microbubbles with 5% DPPE-GTKPPR on HAEC, static, no competitor (control)
[30] = target: endothelial cell receptor on HAEC (human aortic endothelial cells); test: microbubbles on HAEC, static, manual counting, 5% against 1% DPPE-GTKPPR
[31] = target: endothelial cell receptor on HAEC (human aortic endothelial cells); test: microbubbles with 5% DPPE-GTKPPR on HAEC, static
[32] = target: endothelial cell receptor on HAEC (human aortic endothelial cells); test: microbubbles with 10% BRU-114 on HAEC, static, no competitor
[33] = target: endothelial cell receptor on HAEC (human aortic endothelial cells); test: microbubbles with 5% DPPE-GTKPPR on HAEC, static; cells treated with 5 ng/mL TNFα for 4 h
[34] = target: endothelial cell receptor on HAEC (human aortic endothelial cells); test: microbubbles with 1% DPPE-GTKPPR on HAEC, static, no competition
[35] = target: KB cells (human epidermoid carcinoma cell line); test: microbubbles with 5% DPPE-GTKPPR on KB cells, static

beads bound at 1.53 dynes/cm^2 [5]: 86 beads
Integrated density of bound beads (arbitrary units) [1]: 230
B3: TKPPR-conjugated fluorescent beads (peptide)
peptide: TKPPR
modifications: also: coupled by EDAC to carboxylate-modified fluorescent FluoSpheres beads, many copies per bead

IC50 [6]: 10 µM
B4: TKPPR tetramer BRU-326 (OG-(TKPPR)4) (peptide)
peptide: TKPPR-OH
modifications: not fully specified (N-terminus); printed as OG-(TKPPR)4; also: tetramer: four TKPPR arms on branched scaffold carrying one Oregon Green

Bubbles Bound in presence of competitor [7]: 976 bubbles
IC50 [8]: 280 µM
Bubbles Bound in presence of competitor [9]: 904 bubbles
Bubbles Bound in presence of competitor [10]: 556 bubbles
Bubbles Bound in presence of competitor [11]: 1150 bubbles
Bubbles Bound in presence of competitor [12]: 1170 bubbles
B5: Tuftsin (TKPR) (peptide)
peptide: TKPR

Bubbles Bound % (of control binding) [13]: 78 % of control
Bubbles Bound % (of control binding) [14]: 88 % of control
Bubbles Bound % (of control binding) [15]: 97 % of control
B6: Linear CTKPPRC (BRU-305) (peptide)
peptide: CTKPPRC

Second part, the binder before the results:

B1: GRGDSP-conjugated fluorescent beads (peptide)
peptide: GRGDSP
modifications: also: coupled by EDAC to carboxylate-modified fluorescent FluoSpheres beads
Integrated density of bound beads (arbitrary units) [1]: 28.6

B2: Cyclic disulfide CTKPPRC (BRU-306) (peptide)
peptide: CTKPPRC
modifications: disulfide 1-7 (inferred)
Bubbles Bound % (of control binding) [2]: 99 % of control
Bubbles Bound % (of control binding) [3]: 97 % of control
Bubbles Bound % (of control binding) [4]: 71 % of control

B7: DPPE-Glu-GTKPPR (BRU-114) in gas-filled microbubbles (peptide)
peptide: {DPPE′-Glutaryl}-GTKPPR-OH
modifications: also: built into phospholipid shell of gas-filled microbubbles
Bubbles Bound [16]: 1250 bubbles
Bubbles Bound [17]: 737 bubbles
Bubbles Bound % (of control binding) [18]: 100 % of control
Bubbles Bound [19]: 950 bubbles
Bubbles Bound [20]: 7050 bubbles
Bubbles Bound [21]: 1020 bubbles
Bubbles Bound [22]: 1520 bubbles
RAEC bubbles bound [23]: 751 bubbles
Bubbles Bound [24]: 1640 bubbles
Bubbles Bound [25]: 726 bubbles
HAEC bubbles bound [26]: 1420 bubbles
Bubbles Bound [27]: 953 bubbles
Bubbles Bound [28]: 2780 bubbles
Bubbles Bound [29]: 1250 bubbles
% more bubbles bound than with the 1% composition [30]: 31%
HAEC bubble binding [31]: 1120 bubbles
Bubbles Bound [32]: 1860 bubbles
Bubbles Bound [33]: 1360 bubbles
Bubbles Bound [34]: 555 bubbles
KB cell bubble binding [35]: 56 bubbles
